# From US7045537B1, “Protein structures and protein fibres” (The University of Sussex, priority 1999, dated 2006)
# Several values for one entry are separate records, joined by “and”; a condition that tells them apart may be missing. Equal values may be shown once.
# T1: SAF-p2B (CH3CO at the N terminus and NH2 at the C terminus)
# T1 peptide: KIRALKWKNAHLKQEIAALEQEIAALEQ
# T2: SAF-p2A
# T2 sequence (peptide): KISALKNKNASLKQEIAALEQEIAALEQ
# T3: SAF-p2C
# T3 construct: Designed peptide, uncapped ends
# T3 peptide: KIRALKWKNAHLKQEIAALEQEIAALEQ
# T4: SAF-p2D
# T4 construct: also called Self-Assembling Fibre peptide 2
# T4 peptide: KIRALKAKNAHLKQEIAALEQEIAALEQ
# Tests used:
# SAF-p2B [1] = biological target: T1, SAF-p2B; experiment: circular dichroism of the peptide mixture, 10 µM
# Procedure: (§1) Peptide samples were incubated at 5° C. in 10 mM MOPS (3-(N-Morpholino)propanesulfonic acid), pH 7. Sample concentrations were determined from their UV absorbance at 280 nm (SAF-p1) and 214 nm (SAF-p2). After baseline correction, ellipticities in mdeg were converted to molar ellipticities (deg cm^2 dmol-res^-1) by normalizing for the concentration of peptide bonds. Data were recorded in a cell of 1 mm path length by integrating the signal for 5s (and 1s for the fresh 100 µM peptide mixture) every nm in the range 205–260 nm. CD measurements were made using a JASCO J-715 spectropolarimeter fitted with a Peltier temperature controller.
# SAF-p2B [2] = biological target: T1, SAF-p2B; experiment: circular dichroism of the peptide mixture, 100 µM
# Procedure: as §1
# SAF-p2B [3] = biological target: T1, SAF-p2B; experiment: thermal melt by circular dichroism of the peptide mixture, 10 µM (expect 19° C. if no interaction)
# SAF-p2B [4] = biological target: T1, SAF-p2B; experiment: thermal melt by circular dichroism of the peptide mixture, 100 µM (expect 36° C. if no interaction)
# SAF-p2A [5] = biological target: T2, SAF-p2A; experiment: circular dichroism of the peptide mixture, 10 µM
# SAF-p2A [6] = biological target: T2, SAF-p2A; experiment: circular dichroism of the peptide mixture, 100 µM
# SAF-p2C [7] = biological target: T3, SAF-p2C; experiment: circular dichroism of the peptide mixture, 10 µM
# Procedure: as §1
# SAF-p2C [8] = biological target: T3, SAF-p2C; experiment: circular dichroism of the peptide mixture, 100 µM
# Procedure: as §1
# SAF-p2A [9] = biological target: T2, SAF-p2A; experiment: thermal melt by circular dichroism of the peptide mixture, 100 µM
# SAF-p2B [10] = biological target: T1, SAF-p2B; experiment: thermal melt by circular dichroism of the peptide mixture, 100 µM (expect 38° C. if no interaction)
# SAF-p2D [11] = biological target: T4, SAF-p2D; experiment: circular dichroism of the peptide mixture, 10 µM
# Procedure: as §1
# SAF-p2D [12] = biological target: T4, SAF-p2D; experiment: circular dichroism of the peptide mixture, 100 µM
# Procedure: as §1
% α-helix of the mixture (CD) (SAF-p2B [1]),% α-helix of the mixture (CD) (SAF-p2B [2]),% α-helix of the mixture (CD) (SAF-p2A [5]),% α-helix of the mixture (CD) (SAF-p2A [6]),% α-helix of the mixture (CD) (SAF-p2C [7]),% α-helix of the mixture (CD) (SAF-p2C [8]),Tm of the mixture (CD) (SAF-p2A [9]),% α-helix of the mixture (CD) (SAF-p2D [11]),% α-helix of the mixture (CD) (SAF-p2D [12]),Binder,Tm of the mixture (CD) (SAF-p2B [3]),Tm of the mixture (CD) (SAF-p2B [4]),Tm of the mixture (CD) (SAF-p2B [10])
~70%,~80%,,,,,,,,Ac-KIAALKQKIAALKQEIDALEYENDALEQ-NH2 (Chemically capped form of SAF-p1A) [SAF-p1B],~25 ° C.,~35 ° C.,
,~65%,20%,40%,~20%,~80%,30 ° C.,,,"KIAALKQKIAALKQEIDALEYENDALEQ (Prototype designed peptide, uncapped ends) [SAF-p1A]",,,~36 ° C. and ~46 ° C.
,,,,~25%,~65%,,~25%,~85%,KIAALKQKIASLKQEIDALEYENDALEQ (also called Self-Assembling Fibre peptide 1) [SAF-p1C],,,
